Test results as given in patent US9120869 (UNIVERSITY OF SOUTH FLORIDA A FLORIDA NON PROFIT, dated 2015).

T1: Duffy antigen receptor for chemokines (DARC) on Duffy-positive human erythrocytes (human, UniProt Q16570 1-336)
T1 construct: whole, on cells; also called Duffy blood group antigen; Duffy antigen surface receptor
T1 sequence: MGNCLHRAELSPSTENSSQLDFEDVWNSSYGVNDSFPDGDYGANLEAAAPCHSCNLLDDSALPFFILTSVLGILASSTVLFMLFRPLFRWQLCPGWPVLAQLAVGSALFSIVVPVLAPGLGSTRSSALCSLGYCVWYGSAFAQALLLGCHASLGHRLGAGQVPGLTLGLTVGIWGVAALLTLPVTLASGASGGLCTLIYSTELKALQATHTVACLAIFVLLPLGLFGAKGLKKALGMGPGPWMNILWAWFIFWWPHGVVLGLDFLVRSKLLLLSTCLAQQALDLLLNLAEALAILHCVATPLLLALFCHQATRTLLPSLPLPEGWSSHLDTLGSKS


What was measured:
[1] = biological target: T1, Duffy antigen receptor for chemokines …; test: erythrocyte binding assay, Western blot
[2] = biological target: T1, Duffy antigen receptor for chemokines …; test: COS7 erythrocyte-binding assay (rosettes)

Row | Binder | binding result [1] | binding result [2]
1 | recombinant DBPII-Sal1 (refolded ligand domain, region II, of Plasmodium vivax Duffy binding protein, Sal1 variant) (ligand, also called recombinant Sal1; rSal1; not shown: C-terminal histidine tag from pET21a+) NHAFLQNTVMKNCNYKRKRRERDWDCNTKKDVCIPDRRYQLCMKELTNLVNNTDTNFHRDITFRKLYLKRKLIYDAAVEGDLLLKLNNYRYNKDFCKDIRWSLGDFGDIIMGTDMEGIGYSKVVENNLRSIFGTDEKAQQRRKQWWNESKAQIWTAMMYSVKKRLKGNFIWICKLNVAVNIEPQIYRWIREWGRDYVSELPTEVQKLKEKCDGKINYTDKKVCKVPPCQNACKSYDQWITRKKNQWDVLSNKFISVKNAEKVQTAGIVTPYDILKQELDEFNEVAFENEINKRDGAYIEL | binds | 
2 | COS7-expressed PvDBP-RII variant Sal 1 (ligand, The (mut) plasmid differs from (original) by a PvuII to EcoRI site change; also called DBPII-Sal1 expressed on surface of COS7 cells; pEGFP-Sal 1 (original); not shown: C-terminal GFP tag (pEGFP-N1)) NHAFLQNTVMKNCNYKRKRRERDWDCNTKKDVCIPDRRYQLCMKELTNLVNNTDTNFHRDITFRKLYLKRKLIYDAAVEGDLLLKLNNYRYNKDFCKDIRWSLGDFGDIIMGTDMEGIGYSKVVENNLRSIFGTDEKAQQRRKQWWNESKAQIWTAMMYSVKKRLKGNFIWICKLNVAVNIEPQIYRWIREWGRDYVSELPTEVQKLKEKCDGKINYTDKKVCKVPPCQNACKSYDQWITRKKNQWDVLSNKFISVKNAEKVQTAGIVTPYDILKQELDEFNEVAFENEINKRDGAYIEL |  | binds
